Patent publication US20100003727

Biological target: T1, lipoamide-containing aminomethyl transferase (GcvH, H-protein) of C. jeikeium
T1 chain: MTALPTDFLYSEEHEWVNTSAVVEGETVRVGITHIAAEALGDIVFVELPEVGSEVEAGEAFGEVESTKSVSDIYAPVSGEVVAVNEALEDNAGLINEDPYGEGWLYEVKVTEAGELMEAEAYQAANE

B1: lipoyl transferase (LipB protein) of C. jeikeium (protein)
chain: MGFQQGSIRKANMGTTGTNDGATTPPANTSTPAVDIDVRDLGTVDYEDTWHLQANLAAQRAEEKIPDTILLLQHPPTYTAGKRTQDSDRPTNGLPVVDVDRGGRITWHGPGQLVAYPIIKLADPVDVVDYVRRLEQALIQTCEDLGLHGTGRVEGRSGVWLPAGVINGELKPARKIAAIGIRVTRGVTMHGVALNCDNTMEYYDHIVPCGLADAGVTTLTEELGRDVSVSDAYSSLAHNLVDALNGDLPVHS
  growth of serine-auxotrophic C. glutamicum OM264C transformants (pOM620AF, pOM621AR) on minimal glycine plates without serine and without lipoic acid: both transformants grew, while OM264C(pCLIK) did not
